Results published in US20100034738A1 (IMMUNOMEDICS, published 2010).
Blank lines part the entries; values can stand above or below the molecule they belong to.

What was measured:
[1] = molecular target: T1, CD20 (human B lymphocyte-restricted differentiation antigen, Bp35) (human) (UniProt P11836); test: flow cytometry, PE-labelled MAb dissociating from Raji cells, without competing veltuzumab-Fab'-NEM
T1 sequence (looked up): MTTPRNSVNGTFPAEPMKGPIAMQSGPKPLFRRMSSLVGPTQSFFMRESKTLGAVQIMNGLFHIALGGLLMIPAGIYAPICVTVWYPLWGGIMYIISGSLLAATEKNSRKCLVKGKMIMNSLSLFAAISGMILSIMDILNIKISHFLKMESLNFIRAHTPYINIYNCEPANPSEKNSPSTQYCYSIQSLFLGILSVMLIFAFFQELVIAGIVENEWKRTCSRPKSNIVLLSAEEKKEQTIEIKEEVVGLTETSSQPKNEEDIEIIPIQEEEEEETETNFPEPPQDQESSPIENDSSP

[2] = molecular target: T2, CD20 (human B lymphocyte-restricted differentiation antigen, Bp35) (human, UniProt P11836 1-297); test: flow cytometry, dissociation of PE-labelled MAb from live Raji cells (exp 2) at 37 C with excess veltuzumab Fab'-NEM; % T=0 MFI against time, one-phase exponential decay fit [table, column Raji (exp 2)]
T2 construct: whole, on cells; Endogenous CD20 on lymphoma cell lines; also called cell-surface CD20
T2 sequence (looked up): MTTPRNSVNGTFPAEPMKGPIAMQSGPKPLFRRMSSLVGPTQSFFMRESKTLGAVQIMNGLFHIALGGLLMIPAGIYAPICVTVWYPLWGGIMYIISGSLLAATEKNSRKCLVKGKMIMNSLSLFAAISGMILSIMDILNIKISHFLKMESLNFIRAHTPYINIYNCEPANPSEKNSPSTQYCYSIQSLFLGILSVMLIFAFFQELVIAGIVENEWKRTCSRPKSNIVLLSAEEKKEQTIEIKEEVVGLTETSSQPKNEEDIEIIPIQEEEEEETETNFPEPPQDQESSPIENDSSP
Description: (§1) Cells (Daudi, Raji, or Ramos) in 0.5 mL of CM (phenol red-free RPMI 1640 media supplemented with 10% FBS) at 1×10⁶ cells/mL were incubated with 5 μg of each PE-labeled MAb at room temperature for 30 min, pelleted at 400×g, washed twice with CM, resuspended in 1.5 mL of CM, and split into two 0.75-mL aliquots. […] Subsequent measurements were taken at 30-min intervals. The percent maximal binding, which is the quotient of the MFI at T=X divided by that at T=0, was plotted against time, and the results analyzed by Prism software (GraphPad Software Inc., San Diego, Calif.) to yield the half-life or off-rates.

[3] = molecular target: T2, CD20 (human B lymphocyte-restricted …); test: flow cytometry, PE-labelled MAb dissociating from Raji cells, without competing veltuzumab-Fab'-NEM
Description: as §1

[4] = molecular target: T2, CD20 (human B lymphocyte-restricted …); test: flow cytometry, dissociation of PE-labelled MAb from live Ramos cells at 37 C with excess veltuzumab Fab'-NEM; % T=0 MFI against time, one-phase exponential decay fit [table, column Ramos]
Description: (§2) FIG. 5. […] The off-rate was determined by non-linear regression (one phase exponential decay) and P-values were generated by F-test using GraphPad Prism software.
as §1

[5] = molecular target: T2, CD20 (human B lymphocyte-restricted …); test: saturation binding of 125I-labelled MAb to Raji cells, nonlinear regression / Scatchard; apparent KD, replicate assays
Description: (§3) Raji cells (5×10⁵) were incubated with radioiodinated MAbs in an assay volume of 225 μl, using tissue culture media as diluent, for 1 h at 37° C. or room temperature. Cells then were washed twice with PBS containing 1% horse serum, and cell pellets were counted in a gamma counter. The MAbs were titrated at a 2:3 serial dilution starting with approximately 2×10⁶ cpm/2 μg MAb/tube, run in triplicate. Non-specific binding was measured by including replicate unlabeled MAb.

[6] = molecular target: T2, CD20 (human B lymphocyte-restricted …); test: flow cytometry, dissociation of PE-labelled MAb from live Raji cells (exp 1) at 37 C with excess veltuzumab Fab'-NEM; % T=0 MFI against time, one-phase exponential decay fit [table, column Raji (exp 1)]
Description: as §2, §1

[7] = molecular target: T2, CD20 (human B lymphocyte-restricted …); test: direct cell-surface saturation binding of 125I-labelled MAb to Raji cells; non-linear regression, one-site binding model (Prism); one representative of three experiments
Description: FIG. 4. […] Bₘₐₓ and Kd were determined by non-linear regression analysis using a one-site binding model with Prism software.
as §3

[8] = molecular target: T2, CD20 (human B lymphocyte-restricted …); test: flow cytometry, dissociation of PE-labelled MAb from live Daudi cells at 37 C with excess veltuzumab Fab'-NEM; % T=0 MFI against time, one-phase exponential decay fit [table, column Daudi]
Description: as §2, §1

[9] = molecular target: T2, CD20 (human B lymphocyte-restricted …); test: flow cytometry off-rate on lymphoma cells, with or without a competitive binder (summary of Example 5)
Description: as §1

[10] = molecular target: T1, CD20 (human B lymphocyte-restricted differentiation antigen, Bp35) (human); test: cell-based or functional assay
anti-idiotype antibodies = test: binding of radioiodinated MAb to anti-idiotype antibodies
[11] = molecular target: T2, CD20 (human B lymphocyte-restricted …); test: flow cytometry, PE-labelled MAb dissociating from Daudi, Ramos and Raji cells at 37 C with excess veltuzumab-Fab'-NEM
Description: as §1

[12] = molecular target: T2, CD20 (human B lymphocyte-restricted …); test: flow cytometry, PE-labelled MAb dissociating from Raji cells at 37 C with excess veltuzumab-Fab'-NEM
Description: as §1

Molecule: 1F5, murine anti-CD20 monoclonal antibody
dissociation half-life [1]: 195 min

B3: V102Y, variant of hA20 with Val to Tyr at Kabat position 102 in the CDR3 of VH (antibody, name in Kabat numbering, V domains shown)
VH: QVQLQQSGAEVKKPGSSVKVSCKASGYTFTSYNMHWVKQAPGQGLEWIGAIYPGNGDTSYNQKFKGKATLTADESTNTAYMELSSLRSEDTAFYYCARSTYYGGDWYFDYWGQGTTVTVSS
VL: DIQLTQSPSSLSASVGDRVTMTCRASSSVSYIHWFQQKPGKAPKPWIYATSNLASGVPVRFSGSGSGTDYTFTISSLQPEDIATYYCQQWTSNPPTFGGGTKLEIK
ADCC (% lysis), Daudi targets, Donor 001 [10]: 47.5 % lysis
ADCC (% lysis), Daudi targets, Donor 006 [10]: 24.2 % lysis
ADCC (% lysis), Daudi targets, Donor 009 [10]: 33.4 % lysis

B5: veltuzumab (hA20), humanized anti-CD20 antibody (antibody, V domains shown)
VH: QVQLQQSGAEVKKPGSSVKVSCKASGYTFTSYNMHWVKQAPGQGLEWIGAIYPGNGDTSYNQKFKGKATLTADESTNTAYMELSSLRSEDTAFYYCARSTYYGGDWYFDVWGQGTTVTVSS
VL: DIQLTQSPSSLSASVGDRVTMTCRASSSVSYIHWFQQKPGKAPKPWIYATSNLASGVPVRFSGSGSGTDYTFTISSLQPEDIATYYCQQWTSNPPTFGGGTKLEIK
notes: It was 125I-labelled in the Scatchard assay and PE-labelled (Zenon kit) in the off-rate assay; also called v-mab; Vmab
Dissociation Rates (T 1/2 Min) [2]: 61.8 min
immunoreactivity (anti-idiotype antibodies): > 90%
off-rate, fold slower than rituximab or D101N [9]: ~2.5 fold
dissociation half-life, fold longer than rituximab [11]: 2.7 fold
dissociation half-life [3]: 281 min
Dissociation Rates (T 1/2 Min) [4]: 57 min
Kd [5]: 6.23 to 12 nM
Dissociation Rates (T 1/2 Min) [6]: 59.1 min
Kd [7]: 10.8 nM
Dissociation Rates (T 1/2 Min) [8]: 54.4 min

B6: D101N, mutant of veltuzumab with Asp to Asn at Kabat position 101 in CDRH3 (antibody, name in Kabat numbering, V domains shown)
VH: QVQLQQSGAEVKKPGSSVKVSCKASGYTFTSYNMHWVKQAPGQGLEWIGAIYPGNGDTSYNQKFKGKATLTADESTNTAYMELSSLRSEDTAFYYCARSTYYGGDWYFNVWGQGTTVTVSS
VL: DIQLTQSPSSLSASVGDRVTMTCRASSSVSYIHWFQQKPGKAPKPWIYATSNLASGVPVRFSGSGSGTDYTFTISSLQPEDIATYYCQQWTSNPPTFGGGTKLEIK
notes: Same CDRs as rituximab and identical FRs to veltuzumab; also called D101N-hA20
off-rate, fold faster than rituximab [12]: 2 fold
off-rate, fold faster than veltuzumab [12]: 6 fold
Dissociation Rates (T 1/2 Min) [2]: 9.4 min
dissociation half-life [3]: 42 min

Continued, values first:

Dissociation Rates (T 1/2 Min) [2]: 21.4 min
dissociation half-life [3]: 94 min
Dissociation Rates (T 1/2 Min) [4]: 19 min
Kd [5]: 6.7 to 8.63 nM
Dissociation Rates (T 1/2 Min) [6]: 24.3 min
Kd [7]: 8.62 nM
Dissociation Rates (T 1/2 Min) [8]: 20.1 min
B1: rituximab (chimeric anti-CD20, c2B8) (antibody, V domains shown)
VH: QVQLQQPGAELVKPGASVKMSCKASGYTFTSYNMHWVKQTPGRGLEWIGAIYPGNGDTSYNQKFKGKATLTADKSSSTAYMQLSSLTSEDSAVYYCARSTYYGGDWYFNVWGQGTTVTVSS
VL: QIVLSQSPAILSASPGEKVTMTCRASSSVSYIHWFQQKPGSSPKPWIYATSNLASGVPVRFSGSGSGTSYSLTISRVEAEDAATYYCQQWTSNPPTFGGGTK
notes: Commercial chimeric antibody; also called IDEC-c2B8; Rmab

off-rate, fold slower than rituximab or D101N [9]: ~2.5 fold
Dissociation Rates (T 1/2 Min) [4]: 54.8 min
Dissociation Rates (T 1/2 Min) [6]: 62 min
Dissociation Rates (T 1/2 Min) [8]: 58.8 min
B2: cA20, chimeric anti-CD20 antibody (antibody, V domains shown)
VH: QVQLQQPGAELVKPGASVKMSCKASGYTFTSYNMHWVKQTPGRGLEWIGAIYPGNGDTSYNQKFKGKATLTADKSSSTAYMQLSSLTSEDSAVYYCARSTYYGGDWYFDVWGQGTTVTVSS
VL: DIQLTQSPAILSASPGEKVTMTCRASSSVSYIHWFQQKPGSSPKPWIYATSNLASGVPVRFSGSGSGTSYSLTISRVEAEDAATYYCQQWTSNPPTFGGGTKLEIK

ADCC (% lysis), Daudi targets, Donor 001 [10]: 58.3 % lysis
ADCC (% lysis), Daudi targets, Donor 006 [10]: 31.5 % lysis
ADCC (% lysis), Daudi targets, Donor 009 [10]: 54.5 % lysis
B4: YDE, Fc variant of V102Y with S239D and I332E in the CH2 domain (antibody, name in Kabat numbering, V domains shown)
VH: QVQLQQSGAEVKKPGSSVKVSCKASGYTFTSYNMHWVKQAPGQGLEWIGAIYPGNGDTSYNQKFKGKATLTADESTNTAYMELSSLRSEDTAFYYCARSTYYGGDWYFDYWGQGTTVTVSS
VL: DIQLTQSPSSLSASVGDRVTMTCRASSSVSYIHWFQQKPGKAPKPWIYATSNLASGVPVRFSGSGSGTDYTFTISSLQPEDIATYYCQQWTSNPPTFGGGTKLEIK
